Data: patent US20170015742A1 (published 2017)
One block for each binder: values may come before it.

Key:
[1] = molecular target: T1, recombinant human PDGF-BB (human, UniProt P01127 82-190, biotin-labelled in the binding and competition ELISAs (sites not given)); experiment: receptor competition ELISA: antibody pre-incubated with biotin-hPDGF-BB, binding to coated hPDGF-Rβ-Fc
T1 construct: Bought protein (CST cat#8912BF) in the ELISAs and cell assays; purified recombinant PDGF-BB in Biacore; also called huPDGF-BB; hPDGF-BB
Procedure: (§1) Plates were then washed four times with wash buffer (TBS, 0.05% Tween-20) and blocked with Superblock blocking buffer (Thermo Scientific, cat#37535). During the blocking step, supernatants, antibodies, benchmark compounds or DVD-Ig were diluted in assay diluent (10% Superblock containing 0.05% surfactamps) and an eight point titration of each sample molecule was performed. […] Following incubation, plates were washed four times with wash buffer. Detection reagent Streptavidin-polyHRP-40 (Fitzgerald, cat#65r-s104phrp) was diluted in assay diluent and added to plates (50 μL) for 45 minutes at 25° C. with shaking. Plates were washed four times with wash buffer and developed with the addition of Enhanced K-blue TMB substrate (Neogen, cat#308177). The reaction was stopped with 2N sulfuric acid (VWR, cat# BDH3500-1) and the absorbance was read at 450 nm-570 nm. […] Data was analyzed using Softmax Pro 4.8 software and IC₅₀ values calculated using a sigmoidal dose response (variable slope) fit in GraphPad Prism 5.

[2] = molecular target: T1, recombinant human PDGF-BB; experiment: Biacore SPR, antibody captured by anti-human Fc, PDGF-BB injected
Procedure: For example, approximately 9000 RU of goat anti-human Fc specific polyclonal antibody (Thermo Fisher Scientific Inc., Rockford, Ill.) diluted in 10 mM sodium acetate (pH 4.5) is directly immobilized across a CM5 research grade biosensor chip using a standard amine coupling kit according to manufacturer's instructions and procedures at 25 μg/ml. Unreacted moieties on the biosensor surface were blocked with ethanolamine. For kinetic analysis, rate equations derived from the 1:1 Langmuir binding model were fitted simultaneously to multiple antigen injections (using global fit analysis) with the use of Scrubber 2 (BioLogic Software), Biacore Biaevaluation 4.0.1 software or Biacore T100 Evaluation software. Purified antibodies or DVD-Ig molecules were diluted in running buffer for capture across goat anti-human Fc reaction surfaces. Antibodies or DVD-Ig molecules to be captured as a ligand (1 μg/ml) were injected over reaction matrices at a flow rate of 10 μl/minute. During the assay, all measurements were referenced against the capture surface alone (i.e., with no captured antibody or DVD-Ig molecule). […] The equilibrium dissociation constant KD (M) of the reaction between antibodies and the target antigen was then calculated from the kinetic rate constants by the following formula: KD=Koff/Kₒₙ. Binding was recorded as a function of time and kinetic rate constants were calculated.

[3] = molecular target: recombinant rat PDGF-BB (rat, UniProt Q05028 74-182); experiment: cell-based or functional assay
[4] = molecular target: T1, recombinant human PDGF-BB; experiment: cell-based or functional assay
[5] = molecular target: T1, recombinant human PDGF-BB; experiment: direct binding ELISA, biotin-hPDGF-BB on neutravidin plates, antibody titrated
Procedure: Plates were then washed four times with wash buffer (TBS, 0.05% Tween-20). The sample molecule titration was added to the coated plate at 50 μL in duplicate and incubated for one hour at 25° C. with shaking. Following incubation, plates were washed four times with wash buffer. The appropriate anti-species-IgG HRP conjugate was in assay diluent (10% Superblock containing 0.05% surfactamps) and added to plates (50 μL) for one hour at 25° C. with shaking. Plates were washed four times with wash buffer and developed with the addition of Enhanced K-blue TMB substrate (Neogen, cat#308177). The reaction was stopped with 2N sulfuric acid (VWR, cat# BDH3500-1) and the absorbance was read at 450 nm-570 nm. […] Data was analyzed using Softmax Pro 4.8 software and IC₅₀ values calculated using a sigmoidal dose response (variable slope) fit in GraphPad Prism 5.

[6] = molecular target: T2, recombinant human PDGF-Rβ-Fc (R&D Systems #385-PR) (human, UniProt P09619 33-530); experiment: competition ELISA: antibody on coated hPDGFRβ-Fc against hPDGF-BB-biotin (Example 1.27)
T2 construct: Bought reagent; also called hPDGFRβ-Fc; huPDGF Rβ; not shown: Fc part of the bought fusion protein
Procedure: (§2) Plates were then washed four times with wash buffer (TBS, 0.05% Tween-20) and blocked with Superblock blocking buffer (Thermo Scientific, cat#37535). During the blocking step, supernatants, antibodies and benchmark compounds were diluted in assay diluent (10% Superblock containing 0.05% surfactamps) and an eight point titration of each sample molecule was performed. The samples were added to wells and incubated for 30 minutes at 25° C. with shaking. […] This was added to wells (10 ng/mL/3.97E-10 M final concentration) and incubation was continued for 35 minutes at 25° C. with shaking. Following incubation, plates were washed four times with wash buffer. Detection reagent Streptavidin-polyHRP-40 (Fitzgerald, cat#65r-s104phrp) was diluted in assay diluent and added to plates (50 μL) for 45 minutes at 25° C. with shaking. Plates were washed four times with wash buffer and developed with the addition of Enhanced K-blue TMB substrate (Neogen, cat#308177). The reaction was stopped with 2N sulfuric acid (VWR, cat# BDH3500-1) and the absorbance was read at 450 nm-570 nm. […] Data was analyzed using Softmax Pro 4.8 software and IC₅₀ values calculated using a sigmoidal dose response (variable slope) fit in GraphPad Prism 5.

[7] = molecular target: T3, recombinant human PDGF-BB (human, UniProt P01127 82-190); experiment: competition ELISA: antibody pre-incubated with hPDGF-BB-biotin, then added to coated hPDGF-Rβ-Fc (competitor)
T3 construct: Bought (CST cat#8912BF); also called hPDGF-BB; huPDGF-BB
Procedure: as §1

[8] = molecular target: T3, recombinant human PDGF-BB; experiment: cell-based or functional assay
[9] = molecular target: T4, recombinant human PDGF-Rβ-Fc (human, UniProt P09619 33-530); experiment: competition ELISA: antibody added to coated hPDGF-Rβ-Fc, then hPDGF-BB-biotin (competitor)
T4 construct: also called hPDGFRβ-Fc; hPDGF-Rβ; not shown: Fc part of the bought fusion protein
Procedure: as §2

T1 sequence (P01127 82-190 limits assumed): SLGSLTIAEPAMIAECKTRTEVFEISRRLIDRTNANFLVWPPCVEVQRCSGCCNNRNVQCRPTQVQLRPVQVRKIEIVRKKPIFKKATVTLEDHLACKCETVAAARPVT
T3 sequence (P01127 82-190 limits assumed): as above
Chain of recombinant rat PDGF-BB (Q05028 74-182 limits assumed): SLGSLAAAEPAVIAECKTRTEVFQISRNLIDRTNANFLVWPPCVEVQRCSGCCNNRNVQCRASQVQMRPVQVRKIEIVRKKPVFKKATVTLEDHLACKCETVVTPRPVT
T2 sequence (P09619 33-530 limits assumed): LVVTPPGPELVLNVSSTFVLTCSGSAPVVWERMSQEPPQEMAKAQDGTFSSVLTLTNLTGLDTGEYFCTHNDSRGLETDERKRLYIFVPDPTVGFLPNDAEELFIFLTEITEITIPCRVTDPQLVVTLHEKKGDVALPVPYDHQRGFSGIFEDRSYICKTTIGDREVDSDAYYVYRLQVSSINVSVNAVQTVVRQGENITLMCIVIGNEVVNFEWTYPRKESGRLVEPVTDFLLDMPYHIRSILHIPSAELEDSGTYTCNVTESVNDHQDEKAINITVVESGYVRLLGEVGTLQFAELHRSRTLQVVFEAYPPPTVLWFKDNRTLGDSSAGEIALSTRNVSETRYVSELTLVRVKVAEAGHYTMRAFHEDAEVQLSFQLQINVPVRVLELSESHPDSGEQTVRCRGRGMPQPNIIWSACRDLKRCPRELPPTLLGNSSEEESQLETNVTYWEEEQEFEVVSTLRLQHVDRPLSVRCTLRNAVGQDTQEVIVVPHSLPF
T4 sequence (P09619 33-530 limits assumed): as above

B1: chBDI-9E8 (antibody, V domains shown)
VH: QVTLKESGPGILQPSQTLSLTCTFSGFSLSTYGMGVGWIRQPSGKGLEWLANIWWDDDKYYNPSLKNRLTISKDTSNNQAFLKITNVDTADTATYYCARIESIGTTYSFDYWGQGVMVTVSS
VL: QFTLTQPKSVSGSLRSTITIPCERSSGDIGDSYVSWYQQHLGRPPINVIYADDQRPSEVSDRFSGSIDSSSNSASLTITNLQMDDEADYFCQSYDINIDIVFGGGTKLTVL
notes: also called chimeric BDI-9E8-E7
- IC50 [1]: 0.791 nM
- Kd [2]: ≤ 0.012 nM
- koff [2]: 0.00012 s⁻¹
- kon [2]: ≥ 1e+07 M⁻¹ s⁻¹
- ratPDGF-BB Neutralization Potency (nM) in NIH-3T3 Cells [3]: 0.075 nM
- huPDGF-BB Neutralization Potency (nM) in NIH-3T3 Cells [4]: 0.058 nM
- EC50 [5]: 0.38 nM

B2: chBDI-5H1 (antibody, human IgG1, V domains shown)
VH: QVTLKESGPGILQPSQTLSLTCTFSGFSLSTFGMGVGWIRQPSGKGLEWLANIWWDDDKYYNPSLKNRLTISKDTSNSQAFLEITNVDTADTATYYCARISTGISSYYVMDAWGQGASVTVSS
VL: QFTLTQPKSVSGSLRSTITIPCERSSGDIGDTYVSWYQQHLGRPPINVIYGNDQRPSEVSDRFSGSIDSSSNSASLTITNLQMDDEADYFCQSYDSDIDIVFGGGTKLTVL
notes: also called chimeric BDI-5H1-F6
- IC50 [1]: 1.04 nM
- Kd [2]: ≤ 0.015 nM
- koff [2]: 0.00015 s⁻¹
- kon [2]: ≥ 1e+07 M⁻¹ s⁻¹
- ratPDGF-BB Neutralization Potency (nM) in NIH-3T3 Cells [3]: 0.17 nM
- huPDGF-BB Neutralization Potency (nM) in NIH-3T3 Cells [4]: 0.275 nM
- EC50 [5]: 0.12 nM

B3: BDE-4F2-D4 (antibody, V domains shown)
VH: QVQLKESGPGLMQPSQTLSLTCTVSGFSLTNYGVSWVRQFPGKGLEWIAAISSGGSTYYNSALKSRLSISRDTSRSQVFLKMNSLLTEDTAFYFCTRVYYGSNYFDYWGPGVMVTVSS
VL: DIVMTQTPSSQAVSAGEKVTMSCKSSQSLLYGGDQKNFLAWYQQKPGQSPKLLIYLASTRESGVPDRFIGSGSGTDFTLTISSVQAEDLADYYCQQHYGYPFTFGSGTKLEIK
notes: Rat hybridoma anti-human PDGFR-B monoclonal antibody, isotype IgG2a/κ
- IC50 [6]: 0.527 nM

B5: BDE-3C9-G4 (antibody, V domains shown)
VH: EVQLVESGGGLVQPGRSLKLSCAASGFTFSNYGMAWVRQAPTQGLEWVASITNSGGNTYYRDSVKGRFTISRDSAKNTQYLQMDSLRSEDTATYFCARHTPGANYFDYWGQGLMVTVSS
VL: DIQMTQSPPSLSASLGEKVTITCQASQSIKNYIAWYQLKPGTAPRLLMRYTSTLESGTPSRFSGSGSGRDYSFSISNVESEDIASYYCVQYANLYTFGGGTKLELK
notes: Rat hybridoma anti-human PDGFR-B monoclonal antibody, isotype IgG2b/κ
- IC50 [6]: 0.832 nM

B6: hBDE-3C9.1 (antibody, V domains shown)
VH: EVQLVESGGGLVQPGGSLRLSCAASGFTFSNYGMAWVRQAPGKGLEWVASITNSGGNTYYRDSVKGRFTISRDNAKNTQYLQMNSLRAEDTAVYFCARHTPGANYFDYWGQGTMVTVSS
VL: DIQMTQSPSSLSASVGDRVTITCQASQSIKNYIAWYQLKPGKAPRLLMRYTSTLESGTPSRFSGSGSGRDYTFTISSLQPEDIATYYCVQYANLYTFGGGTKVEIK
notes: Humanized anti-human PDGFR-B IgG from pHybE expression vectors
- IC50 [9]: 0.217 nM

The next lines start with the values.

- IC50 [7]: 1.73 nM
- hPDGF-BB IC50 (nM), hPDGF-BB-induced NIH-3T3 cell proliferation [8]: 0.309 nM
B4: hBDI-9E8.11 (antibody, V domains shown)
VH: EVQLVESGGGLVQPGGSLRLSCAFSGFSLSTYGMGVGWIRQAPGKGLEWLANIWWDDDKYYNPSLKNRLTISKDTSKNQAYLQINSLRAEDTAVYYCARIESIGTTYSFDYWGQGTLVTVSS
VL: DFVLTQSPDSLAVSLGERATINCERSSGDIGDSYVSWYQQKPGQPPKNVIYADDQRPSGVPDRFSGSGSGNSASLTISSLQAEDVAVYFCQSYDINIDIVFGGGTKVEIK
notes: Humanized IgG from pHybE expression vectors, made in HEK293 6E and protein A purified

- IC50 [9]: 0.26 nM
B7: hBDE-3C9.2 (antibody, V domains shown)
VH: EVQLVESGGGLVQPGGSLRLSCAASGFTFSNYGMAWVRQAPGKGLEWVASITNSGGNTYYRDSVKGRFTISRDNAKNSLYLQMNSLRAEDTAVYYCARHTPGANYFDYWGQGTMVTVSS
VL: DIQMTQSPSSLSASVGDRVTITCQASQSIKNYIAWYQQKPGKAPRLLIRYTSTLESGVPSRFSGSGSGRDYTFTISSLQPEDIATYYCVQYANLYTFGGGTKVEIK
notes: as for B6

- IC50 [7]: 4.3 nM
- hPDGF-BB IC50 (nM), hPDGF-BB-induced NIH-3T3 cell proliferation [8]: 0.061 nM
B8: hBDI-9E8.4 (antibody, V domains shown)
VH: EVTLRESGPALVKPTQTLTLTCTFSGFSLSTYGMGVGWIRQPPGKALEWLANIWWDDDKYYNPSLKNRLTISKDTSKNQVVLTMTNMDPVDTATYYCARIESIGTTYSFDYWGQGTMVTVSS
VL: EFVLTQSPGTLSLSPGERATLSCERSSGDIGDSYVSWYQQKPGQAPRLVIYADDQRPSGIPDRFSGSGSGTDFTLTISRLEPEDFAVYYCQSYDINIDIVFGGGTKVEIK
notes: Humanized IgG from pHybE expression vectors, made in HEK293 6E and protein A purified; also called h9E8.4
